This is an account of results in patent US20090240037A1 (IMMUNOMEDICS, published 2009).

In general, IC50 refers to the midpoint of a concentration-inhibition curve. What is called Kd is the free concentration of one partner at which half of the binding sites on the other are occupied at equilibrium, for simple one-to-one binding. The low end stands for a tighter complex, the high end for a looser complex.

Test [1] deals with CD20 (human B lymphocyte-restricted differentiation antigen Bp35) on Raji cells (human) (UniProt P11836). As to the kind of experiment: cell surface competitive binding on Raji cells, 4 C, 1-2 h; unlabeled rituximab against tracer 125I-labeled c2B8/rituximab.
Test [2] shares this target. Description: staining of NHL cell lines (Raji, Ramos, RL, Daudi, Su-DHL-6).
For test [3] the target is unchanged. As to the kind of experiment: cell surface competitive binding on Raji cells, 4 C, 1-2 h; unlabeled rituximab against tracer 125I-labeled rituximab; column head IC50 nM.
Test [4] has the same target. Description: cell surface competitive binding on Raji cells; unlabeled murine A20 against tracer 125I-labeled murine A20.
Test [5] has the same target. Description: cell surface competitive binding on Raji cells, 4 C, 1-2 h; unlabeled murine A20 against tracer 125I-labeled murine A20.
For test [6] the target is unchanged. Description: cell surface competitive binding on Raji cells, 4 C, 1-2 h; competitor tracer 125I-labeled rituximab; column head IC50 nM.
For test [7] the target is unchanged. As to the kind of experiment: direct binding of radiolabeled MAb to Raji cells, Scatchard plot analysis.
The target in test [8] is T1, CD20 (human B lymphocyte-restricted differentiation antigen Bp35) on Raji cells (human, UniProt P11836 1-297).
T1 construct: whole, on cells; The assays name the cells (Raji, Ramos, RL, Daudi, Su-DHL-6); also called CD20 antigen; hCD20
T1 sequence (looked up): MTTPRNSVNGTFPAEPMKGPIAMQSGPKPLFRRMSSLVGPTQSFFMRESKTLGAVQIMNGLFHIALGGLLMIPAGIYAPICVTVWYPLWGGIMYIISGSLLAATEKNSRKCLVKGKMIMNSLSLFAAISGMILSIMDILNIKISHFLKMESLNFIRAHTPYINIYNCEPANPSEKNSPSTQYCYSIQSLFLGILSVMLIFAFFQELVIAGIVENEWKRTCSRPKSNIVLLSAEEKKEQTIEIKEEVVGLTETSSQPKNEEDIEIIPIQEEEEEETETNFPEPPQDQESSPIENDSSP
As to the kind of experiment: cell surface competitive binding on Raji cells, 4 C, 1-2 h; competitor tracer 125I-labeled murine 2B8. As to the method: (§1) Unbound Abs were removed by washing the cells with PBS. Radioactivity associated with the cells was determined after washing.

The target in test [9] is T1, CD20 (human B lymphocyte-restricted …). As to the kind of experiment: cell surface competitive binding on Raji cells; competitor tracer 125I-labeled murine A20. The procedure:
(§2) Unbound Abs were removed by washing the cells in PBS. The radioactivity associated with cells was determined after washing.

For test [10] the target is unchanged. As to the kind of experiment: cell surface competitive binding on Raji cells, 4 C, 1-2 h; competitor tracer 125I-labeled c2B8/rituximab.
The target is the same in test [11]. Description: direct binding of radiolabeled MAb to Raji cells, Scatchard plot analysis.
Test [12] shares this target. Description: cell surface competitive binding on Raji cells, 4 C, 1-2 h; competitor tracer 125I-labeled rituximab. The procedure:
as §1

Test [13] has the same target. As to the kind of experiment: cell surface competitive binding on Raji cells, 4 C, 1-2 h; competitor tracer 125I-labeled murine A20. As to the method: as §2
The target is the same in test [14]. As to the kind of experiment: cell surface competitive binding on Raji cells, 4 C, 1-2 h; competitor tracer 125I-labeled rituximab; column head IC50 nM. The procedure: as §1
Test [15] addresses T2, soluble CEA (Scripps Laboratories) (UniProt P06731 35-685, limits assumed).
T2 construct: Coated at 0.5 ug/well in the ELISA; also injected as soluble analyte in BIAcore
T2 sequence (looked up): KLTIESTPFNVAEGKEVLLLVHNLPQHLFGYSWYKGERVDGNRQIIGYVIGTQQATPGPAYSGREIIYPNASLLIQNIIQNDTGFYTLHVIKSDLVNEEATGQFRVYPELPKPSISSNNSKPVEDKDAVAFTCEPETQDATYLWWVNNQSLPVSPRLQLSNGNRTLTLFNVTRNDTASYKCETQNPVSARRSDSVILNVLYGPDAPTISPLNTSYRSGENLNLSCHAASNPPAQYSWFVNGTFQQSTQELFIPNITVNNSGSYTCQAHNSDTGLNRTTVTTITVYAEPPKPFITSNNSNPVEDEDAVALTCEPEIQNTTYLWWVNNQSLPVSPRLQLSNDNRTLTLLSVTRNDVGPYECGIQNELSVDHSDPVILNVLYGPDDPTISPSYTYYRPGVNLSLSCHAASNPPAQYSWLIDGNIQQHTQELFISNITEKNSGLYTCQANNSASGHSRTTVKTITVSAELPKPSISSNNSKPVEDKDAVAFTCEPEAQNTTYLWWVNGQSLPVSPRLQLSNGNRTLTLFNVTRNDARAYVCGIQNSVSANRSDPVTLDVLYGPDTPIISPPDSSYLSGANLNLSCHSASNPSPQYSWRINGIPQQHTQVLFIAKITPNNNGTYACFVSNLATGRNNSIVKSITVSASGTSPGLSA
As to the kind of experiment: competitive ELISA; antigen not given, CEA per paragraph 119. For orientation: In an ELISA, binding on a coated surface is turned into a signal by an enzyme label.

Test [16] addresses T2, soluble CEA (Scripps Laboratories). Description: competitive ELISA on CEA-coated wells (0.5 ug/well); competitor HRP-conjugated hMN14 IgG, 1 nM. The procedure:
FIG. 15 is a graphical representation of the results of a competitive enzyme-linked immunosorbent assay (ELISA). […] The % inhibition is plotted vs. nM concentration of sample.
Microtiter plates were coated with 0.5 μg/well with soluble CEA (Scripps Laboratories).

Test [17] shares this target. As to the kind of experiment: ELISA on CEA.

The molecule “rituximab (IDEC Pharmaceuticals Corp.) (antibody)” came in with an IC50 (read off the curve) in test [1] of 7 nM. In addition, the percent of cells stained in [2] is > 99%. In test [3], the IC50 came out at 5 nM.
For the molecule A20, murine anti-CD20 MAb (antibody), the results for the IC50 (read off the curve) in test [4] and in test [5] were 20 nM and 4 nM, respectively.
murine B1 anti-CD20 antibody: the concentration for half-maximal inhibition (IC50) in test [6] is 34 nM. In other words, the double-digit nanomolar range.
“hA20, humanized anti-CD20 antibody (variant hA20-1 or hA20-2 not specified)”: the percent of cells stained in [2] was > 99%. The Kd in [7] amounted to 4.2 nM.

B1: cA20, chimeric anti-CD20 antibody (antibody, V domains shown)
VH: QVQLQQPGAELVKPGASVKMSCKASGYTFTSYNMHWVKQTPGRGLEWIGAIYPGNGDTSYNQKFKGKATLTADKSSSTAYMQLSSLTSEDSAVYYCARSTYYGGDWYFDVWGQGTTVTVSS
VL: DIQLTQSPAILSASPGEKVTMTCRASSSVSYIHWFQQKPGSSPKPWIYATSNLASGVPVRFSGSGSGTSYSLTISRVEAEDAATYYCQQWTSNPPTFGGGTKLEIK
notes: Murine A20 variable domains with human constant regions; expressed in Sp2/0 cells; also called chimeric A20
For the molecule B1, the “IC50 (read off the curve)” value is ~9 nM in test [8], ~10 nM in [9], ~6 nM in test [10] and ~9 nM in [12]. The molecule further gave a Kd in [11] of 2.9 nM.

B2: hA20-1, humanized anti-CD20 antibody (hA20VH1 + hA20Vk) (antibody, human IgG1, V domains shown)
VH: QVQLQQSGAEVKKPGSSVKVSCKASGYTFTSYNMHWVKQAPGQGLEWIGAIYPGNGDTSYNQKFKGKATLTADESTNTAYMELSSLRSEDTAFYYCARSTYYGGDWYFDVWGQGTTVTVSS
VL: DIQLTQSPSSLSASVGDRVTMTCRASSSVSYIHWFQQKPGKAPKPWIYATSNLASGVPVRFSGSGSGTDYTFTISSLQPEDIATYYCQQWTSNPPTFGGGTKLEIKR
Consider B2, for which the “IC50 (read off the curve)” value in test [8] is ~10 nM; in test [10] it was ~9 nM; in test [13] it was ~4 nM. Moreover, in test [14], the IC50 was determined as 6.8 nM.

B3: hA20-2, humanized anti-CD20 antibody (hA20VH2 + hA20Vk) (antibody, human IgG1, V domains shown)
VH: QVQLQQSGAEVKKPGSSVKVSCKASGYTFSSYNMHWVRQAPGQGLEWMGAIYPGNGDTSYNQKFKGRATITADESTNTAYMELSSLRSEDTAFYFCARSTYYGGDWYFDVWGQGTTVTVSS
VL: DIQLTQSPSSLSASVGDRVTMTCRASSSVSYIHWFQQKPGKAPKPWIYATSNLASGVPVRFSGSGSGTDYTFTISSLQPEDIATYYCQQWTSNPPTFGGGTKLEIKR
With B3, the “IC50 (read off the curve)” value in test [8] is ~10 nM; in [13], ~4 nM.

B4: hMN14 diabody (hMN14-scFv-L5) (scFv)
scFv: MEVQLVESGGGVVQPGRSLRLSCSASGFDFTTYWMSWVRQAPGKGLEWIGEIHPDSSTINYAPSLKDRFTISRDNAKNTLFLQMDSLRPEDTGVYFCASLYFGFPWFAYWGQGTPVTVSGGGGSDIQLTQSPSSLSASVGDRVTITCKASQDVGTSVAWYQQKPGKAPKLLIYWTSTRHTGVPSRFSGSGSGTDFTFTISSLQPEDIATYYCQQYSLYRSFGQGTKVEIKRLEHHHHHH
modifications: Non-covalent homodimer (diabody) of two copies of this chain.
notes: Non-covalent homodimer of the scFv; the pelB leader is removed in the mature polypeptide; One codon before the VH and two between the VK and the tag are not spelled out in the text
Turning to B4, the binding result in test [15] is “binds”.

B5: BS1.5 (679 x hMN14 bispecific diabody: variant 2) (bispecific antibody)
chain 1: MEVQLVESGGDLVKPGGSLKLSCAASGFTFSIYTMSWLRQTPEKRLEWVATLSGDGDDIYYPDSVKGRFTISRDNAKNNLYLQMNSLRSADTALYYCARVRLGDWDFDVWGQGTTVSVSSGGGGSDIQLTQSPSSLSASVGDRVTITCKASQDVGTSVAWYQQKPGKAPKLLIYWTSTRHTGVPSRFSGSGSGTDFTFTISSLQPEDIATYYCQQYSLYRSFGQGTKVEIKRLEHHHHHH
chain 2: MEVQLVESGGGVVQPGRSLRLSCSASGFDFTTYWMSWVRQAPGKGLEWIGEIHPDSSTINYAPSLKDRFTISRDNAKNTLFLQMDSLRPEDTGVYFCASLYFGFPWFAYWGQGTPVTVSGGGGSDIVMSQSPSSLAVSPGEKVTMTCKSSQSLFNSRTRKNYLGWYQQKPGQSPKLLIYWASTRESGVPDRFTGSGSGTDFTLTINSVQSEDLAVYYCTQVYYLCTFGAGTKLELKRLEHHHHHH
notes: Heterodimer of the two polypeptides; pelB leaders removed; copies: 1 + 1
Turning to B5, in test [16], the binding result is given as “binds”.

B6: BS1 (679 x hMN14 bispecific diabody: variant 1) (bispecific antibody)
chain 1: MEVILVESGGDLVKPGGSLKLSCAASGFTFSIYTMSWLRQTPEKRLEWVATLSGDGDDIYYPDSVKGRFTISRDNAKNNLYLQMNSLRSADTALYYCARVRLGDWDFDVWGQGTTVSVSSGGGGSDIQLTQSPSSLSASVGDRVTITCKASQDVGTSVAWYQQKPGKAPKLLIYWTSTRHTGVPSRFSGSGSGTDFTFTISSLQPEDIATYYCQQYSLYRSFGQGTKVEIKRLEHHHHHH
chain 2: MEVQLVESGGGVVQPGRSLRLSCSASGFDFTTYWMSWVRQAPGKGLEWIGEIHPDSSTINYAPSLKDRFTISRDNAKNTLFLQMDSLRPEDTGVYFCASLYFGFPWFAYWGQGTPVTVSGGGGSDIVMSQSPSSLAVSPGEKVTMTCKSSQSLFNSRTRKNYLGWYQQKPGQSPKLLIYWASTRESGVPDRFTGSGSGTDFTLTINSVQSEDLAVYYCTQVYYLCTFGAGTKLELKRLEHHHHHH
notes: as for B5
Turning to B6, in test [17], the binding result is on record as “binds”.

B7: BS2 (679 x hMN14 bispecific diabody: variant 3) (bispecific antibody)
chain 1: MEVQLVESGGDLVKPGGSLKLSCAASGFTFSIYTMSWLRQTPEKRLEWVATLSGDGDDIYYPDSVKGRFTISRDNAKNNLYLQMNSLRSADTALYYCARVRLGDWDFDVWGQGTTVSVSSGGGGSDIQLTQSPSSLSASVGDRVTITCKASQDVGTSVAWYQQKPGKAPKLLIYWTSTRHTGVPSRFSGSGSGTDFTFTISSLQPEDIATYYCQQYSLYRSFGQGTKVEIKRLEHHHHHH
chain 2: MEVQLVESGGGVVQPGRSLRLSCSASGFDFTTYWMSWVRQAPGKGLEWIGEIHPDSSTINYAPSLKDRFTISRDNAKNTLFLQMDSLRPEDTGVYFCASLYFGFPWFAYWGQGTPVTVSGGGGSDIVMSQSPSSLAVSPGEKVTMTCKSSQSLFNSRTRKNYLGWYQQKPGQSPKLLIYWASTRESGVPDRFTGSGSGTDFTLTINSVQSEDLAVYYCTQVYYLSTFGAGTKLELKRLEHHHHHH
notes: as for B5
Turning to B7, in [17], the binding result was “binds”.
